Numbered stars: 1 amine (or outer) side, 2 acyl side, 3 side chain; on linkers, the order of the positions; unused ones are H or OH. Square brackets hold non-standard residues; d marks the D form. Asp(NHBzl) = N-omega-benzylasparagine, O=C(C[C@H](N[*:1])C(=O)[*:2])NCc1ccccc1; Phe(3-Me) = Cc1cccc(C[C@H](N)C(=O)O)c1; Phe(4-Me) = Cc1ccc(C[C@H](N)C(=O)O)cc1; Phe(2-Me) = Cc1ccccc1C[C@H](N)C(=O)O; Arg(Me) = CNC(=N)NCCC[C@H](N)C(=O)O; Ala(cPr) = N[C@@H](CC1CC1)C(=O)O; Hyp = O=C(O)[C@@H]1C[C@@H](O)CN1; αMeF = C[C@](N)(Cc1ccccc1)C(=O)O; Cit = NC(=O)NCCC[C@H](N)C(=O)O; Dab = NCC[C@H](N)C(=O)O; Dap = NC[C@H](N)C(=O)O; azaGly = NNC(=O)O

The labels stand for the following.
B1: des(1)-Ac-[D-Tyr2,Hyp3,Thr5,Phe(4Me)6,AzaGly7,Arg(Me)9,Trp10]MS10 (peptide)
peptide: Ac-[dY][Hyp]NT[Phe(4-Me)][azaGly]L[Arg(Me)]W-NH2
SMILES: CNC(=N)NCCC[C@H](NC(=O)[C@H](CC(C)C)NC(=O)NNC(=O)[C@H](Cc1ccc(C)cc1)NC(=O)[C@@H](NC(=O)[C@H](CC(N)=O)NC(=O)[C@@H]1C[C@@H](O)CN1C(=O)[C@@H](Cc1ccc(O)cc1)NC(C)=O)[C@@H](C)O)C(=O)N[C@@H](Cc1c[nH]c2ccccc12)C(N)=O
B2: des(1)-Ac-[D-Tyr2,D-Trp3,Asp(NHBzl)4,Thr5,AzaGly7,Arg(Me)9,Trp10]MS10 (peptide)
peptide: Ac-[dY][dW][Asp(NHBzl)]TF[azaGly]L[Arg(Me)]W-NH2
SMILES: CNC(=N)NCCC[C@H](NC(=O)[C@H](CC(C)C)NC(=O)NNC(=O)[C@H](Cc1ccccc1)NC(=O)[C@@H](NC(=O)[C@H](CC(=O)NCc1ccccc1)NC(=O)[C@@H](Cc1c[nH]c2ccccc12)NC(=O)[C@@H](Cc1ccc(O)cc1)NC(C)=O)[C@@H](C)O)C(=O)N[C@@H](Cc1c[nH]c2ccccc12)C(N)=O
B3: des(1)-Ac-[D-Tyr2,Hyp3,Thr5,αMePhe6,AzaGly7,Arg(Me)9,Trp10]MS10 (peptide)
peptide: Ac-[dY][Hyp]NT[αMeF][azaGly]L[Arg(Me)]W-NH2
SMILES: CNC(=N)NCCC[C@H](NC(=O)[C@H](CC(C)C)NC(=O)NNC(=O)[C@](C)(Cc1ccccc1)NC(=O)[C@@H](NC(=O)[C@H](CC(N)=O)NC(=O)[C@@H]1C[C@@H](O)CN1C(=O)[C@@H](Cc1ccc(O)cc1)NC(C)=O)[C@@H](C)O)C(=O)N[C@@H](Cc1c[nH]c2ccccc12)C(N)=O
B4: des(1)-Ac-[D-Tyr2,Hyp3,His4,Thr5,AzaGly7,Arg(Me)9,Trp10]MS10 (peptide)
peptide: Ac-[dY][Hyp]HTF[azaGly]L[Arg(Me)]W-NH2
SMILES: CNC(=N)NCCC[C@H](NC(=O)[C@H](CC(C)C)NC(=O)NNC(=O)[C@H](Cc1ccccc1)NC(=O)[C@@H](NC(=O)[C@H](Cc1c[nH]cn1)NC(=O)[C@@H]1C[C@@H](O)CN1C(=O)[C@@H](Cc1ccc(O)cc1)NC(C)=O)[C@@H](C)O)C(=O)N[C@@H](Cc1c[nH]c2ccccc12)C(N)=O
B5: des(1)-Ac-[D-Tyr2,Hyp3,Gly5,AzaGly7,Arg(Me)9,Trp10]MS10 (peptide)
peptide: Ac-[dY][Hyp]NGF[azaGly]L[Arg(Me)]W-NH2
SMILES: CNC(=N)NCCC[C@H](NC(=O)[C@H](CC(C)C)NC(=O)NNC(=O)[C@H](Cc1ccccc1)NC(=O)CNC(=O)[C@H](CC(N)=O)NC(=O)[C@@H]1C[C@@H](O)CN1C(=O)[C@@H](Cc1ccc(O)cc1)NC(C)=O)C(=O)N[C@@H](Cc1c[nH]c2ccccc12)C(N)=O
B6: des(1)-Ac-[D-Tyr2,Hyp3,Dap4,Thr5,AzaGly7,Arg(Me)9,Trp10]MS10 (peptide)
peptide: Ac-[dY][Hyp][Dap]TF[azaGly]L[Arg(Me)]W-NH2
SMILES: CNC(=N)NCCC[C@H](NC(=O)[C@H](CC(C)C)NC(=O)NNC(=O)[C@H](Cc1ccccc1)NC(=O)[C@@H](NC(=O)[C@H](CN)NC(=O)[C@@H]1C[C@@H](O)CN1C(=O)[C@@H](Cc1ccc(O)cc1)NC(C)=O)[C@@H](C)O)C(=O)N[C@@H](Cc1c[nH]c2ccccc12)C(N)=O
B7: des(1)-Ac-[D-Tyr2,Hyp3,Cit4,Thr5,AzaGly7,Arg(Me)9,Trp10]MS10 (peptide)
peptide: Ac-[dY][Hyp][Cit]TF[azaGly]L[Arg(Me)]W-NH2
SMILES: CNC(=N)NCCC[C@H](NC(=O)[C@H](CC(C)C)NC(=O)NNC(=O)[C@H](Cc1ccccc1)NC(=O)[C@@H](NC(=O)[C@H](CCCNC(N)=O)NC(=O)[C@@H]1C[C@@H](O)CN1C(=O)[C@@H](Cc1ccc(O)cc1)NC(C)=O)[C@@H](C)O)C(=O)N[C@@H](Cc1c[nH]c2ccccc12)C(N)=O
B8: des(1)-Ac-[D-Tyr2,Hyp3,Ala5,AzaGly7,Arg(Me)9,Trp10]MS10 (peptide)
peptide: Ac-[dY][Hyp]NAF[azaGly]L[Arg(Me)]W-NH2
SMILES: CNC(=N)NCCC[C@H](NC(=O)[C@H](CC(C)C)NC(=O)NNC(=O)[C@H](Cc1ccccc1)NC(=O)[C@H](C)NC(=O)[C@H](CC(N)=O)NC(=O)[C@@H]1C[C@@H](O)CN1C(=O)[C@@H](Cc1ccc(O)cc1)NC(C)=O)C(=O)N[C@@H](Cc1c[nH]c2ccccc12)C(N)=O
B9: des(1)-Ac-[D-Tyr2,Hyp3,Gln4,Thr5,AzaGly7,Arg(Me)9,Trp10]MS10 (peptide)
peptide: Ac-[dY][Hyp]QTF[azaGly]L[Arg(Me)]W-NH2
SMILES: CNC(=N)NCCC[C@H](NC(=O)[C@H](CC(C)C)NC(=O)NNC(=O)[C@H](Cc1ccccc1)NC(=O)[C@@H](NC(=O)[C@H](CCC(N)=O)NC(=O)[C@@H]1C[C@@H](O)CN1C(=O)[C@@H](Cc1ccc(O)cc1)NC(C)=O)[C@@H](C)O)C(=O)N[C@@H](Cc1c[nH]c2ccccc12)C(N)=O
B10: des(1)-Ac-[D-Tyr2,Hyp3,Thr5,Phe(3Me)6,AzaGly7,Arg(Me)9,Trp10]MS10 (peptide)
peptide: Ac-[dY][Hyp]NT[Phe(3-Me)][azaGly]L[Arg(Me)]W-NH2
SMILES: CNC(=N)NCCC[C@H](NC(=O)[C@H](CC(C)C)NC(=O)NNC(=O)[C@H](Cc1cccc(C)c1)NC(=O)[C@@H](NC(=O)[C@H](CC(N)=O)NC(=O)[C@@H]1C[C@@H](O)CN1C(=O)[C@@H](Cc1ccc(O)cc1)NC(C)=O)[C@@H](C)O)C(=O)N[C@@H](Cc1c[nH]c2ccccc12)C(N)=O
B11: des(1)-Ac-[D-Tyr2,Hyp3,D-Ala5,AzaGly7,Arg(Me)9,Trp10]MS10 (peptide)
peptide: Ac-[dY][Hyp]N[dA]F[azaGly]L[Arg(Me)]W-NH2
SMILES: CNC(=N)NCCC[C@H](NC(=O)[C@H](CC(C)C)NC(=O)NNC(=O)[C@H](Cc1ccccc1)NC(=O)[C@@H](C)NC(=O)[C@H](CC(N)=O)NC(=O)[C@@H]1C[C@@H](O)CN1C(=O)[C@@H](Cc1ccc(O)cc1)NC(C)=O)C(=O)N[C@@H](Cc1c[nH]c2ccccc12)C(N)=O
B12: des(1)-Ac-[D-Tyr2,Hyp3,Hyp5,AzaGly7,Arg(Me)9,Trp10]MS10 (peptide)
peptide: Ac-[dY][Hyp]N[Hyp]F[azaGly]L[Arg(Me)]W-NH2
SMILES: CNC(=N)NCCC[C@H](NC(=O)[C@H](CC(C)C)NC(=O)NNC(=O)[C@H](Cc1ccccc1)NC(=O)[C@@H]1C[C@@H](O)CN1C(=O)[C@H](CC(N)=O)NC(=O)[C@@H]1C[C@@H](O)CN1C(=O)[C@@H](Cc1ccc(O)cc1)NC(C)=O)C(=O)N[C@@H](Cc1c[nH]c2ccccc12)C(N)=O
B13: des(1)-Ac-[D-Tyr2,Hyp3,Thr5,Phe(2Me)6,AzaGly7,Arg(Me)9,Trp10]MS10 (peptide)
peptide: Ac-[dY][Hyp]NT[Phe(2-Me)][azaGly]L[Arg(Me)]W-NH2
SMILES: CNC(=N)NCCC[C@H](NC(=O)[C@H](CC(C)C)NC(=O)NNC(=O)[C@H](Cc1ccccc1C)NC(=O)[C@@H](NC(=O)[C@H](CC(N)=O)NC(=O)[C@@H]1C[C@@H](O)CN1C(=O)[C@@H](Cc1ccc(O)cc1)NC(C)=O)[C@@H](C)O)C(=O)N[C@@H](Cc1c[nH]c2ccccc12)C(N)=O
B14: des(1)-Ac-[D-Tyr2,Hyp3,Thr5,AzaGly7,Ala(cPr)8,Arg(Me)9,Trp10]MS10 (peptide)
peptide: Ac-[dY][Hyp]NTF[azaGly][Ala(cPr)][Arg(Me)]W-NH2
SMILES: CNC(=N)NCCC[C@H](NC(=O)[C@H](CC1CC1)NC(=O)NNC(=O)[C@H](Cc1ccccc1)NC(=O)[C@@H](NC(=O)[C@H](CC(N)=O)NC(=O)[C@@H]1C[C@@H](O)CN1C(=O)[C@@H](Cc1ccc(O)cc1)NC(C)=O)[C@@H](C)O)C(=O)N[C@@H](Cc1c[nH]c2ccccc12)C(N)=O
B15: des(1)-Ac-[D-Tyr2,Hyp3,Gly4,Thr5,AzaGly7,Arg(Me)9,Trp10]MS10 (peptide)
peptide: Ac-[dY][Hyp]GTF[azaGly]L[Arg(Me)]W-NH2
SMILES: CNC(=N)NCCC[C@H](NC(=O)[C@H](CC(C)C)NC(=O)NNC(=O)[C@H](Cc1ccccc1)NC(=O)[C@@H](NC(=O)CNC(=O)[C@@H]1C[C@@H](O)CN1C(=O)[C@@H](Cc1ccc(O)cc1)NC(C)=O)[C@@H](C)O)C(=O)N[C@@H](Cc1c[nH]c2ccccc12)C(N)=O
B16: des(1)-Ac-[D-Tyr2,Hyp3,Dab4,Thr5,AzaGly7,Arg(Me)9,Trp10]MS10 (peptide)
peptide: Ac-[dY][Hyp][Dab]TF[azaGly]L[Arg(Me)]W-NH2
SMILES: CNC(=N)NCCC[C@H](NC(=O)[C@H](CC(C)C)NC(=O)NNC(=O)[C@H](Cc1ccccc1)NC(=O)[C@@H](NC(=O)[C@H](CCN)NC(=O)[C@@H]1C[C@@H](O)CN1C(=O)[C@@H](Cc1ccc(O)cc1)NC(C)=O)[C@@H](C)O)C(=O)N[C@@H](Cc1c[nH]c2ccccc12)C(N)=O
B17: des(1)-Ac-[D-Tyr2,Hyp3,Arg4,Thr5,AzaGly7,Arg(Me)9,Trp10]MS10 (peptide)
peptide: Ac-[dY][Hyp]RTF[azaGly]L[Arg(Me)]W-NH2
SMILES: CNC(=N)NCCC[C@H](NC(=O)[C@H](CC(C)C)NC(=O)NNC(=O)[C@H](Cc1ccccc1)NC(=O)[C@@H](NC(=O)[C@H](CCCNC(=N)N)NC(=O)[C@@H]1C[C@@H](O)CN1C(=O)[C@@H](Cc1ccc(O)cc1)NC(C)=O)[C@@H](C)O)C(=O)N[C@@H](Cc1c[nH]c2ccccc12)C(N)=O

The target of the test is human OT7T175 (metastin receptor) (human) (UniProt Q969F8). In words: cell-based or functional assay.
Sequence of human OT7T175 (metastin receptor) (human) (Q969F8 whole entry L364H): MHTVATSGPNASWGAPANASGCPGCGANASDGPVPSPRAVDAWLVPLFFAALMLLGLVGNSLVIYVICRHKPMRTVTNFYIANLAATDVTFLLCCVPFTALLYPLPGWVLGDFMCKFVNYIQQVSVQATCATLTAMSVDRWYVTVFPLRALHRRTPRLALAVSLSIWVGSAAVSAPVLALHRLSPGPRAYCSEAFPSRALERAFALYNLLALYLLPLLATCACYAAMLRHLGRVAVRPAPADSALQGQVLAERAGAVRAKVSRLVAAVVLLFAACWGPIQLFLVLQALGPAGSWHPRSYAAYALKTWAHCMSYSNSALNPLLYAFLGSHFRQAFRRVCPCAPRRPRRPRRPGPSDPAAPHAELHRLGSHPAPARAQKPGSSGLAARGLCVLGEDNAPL
The molecule B1 yielded an intracellular Ca ion level-increasing activity [specific activity to Metastin (1-54)] (relative to Metastin (1-54)) of 0.8.

Molecule B2 gave an intracellular Ca ion level-increasing activity [specific activity to Metastin (1-54)] (relative to Metastin (1-54)) of 3.6.

For the molecule B3, the intracellular Ca ion level-increasing activity [specific activity to Metastin (1-54)] (relative to Metastin (1-54)) is 1.4.

In the case of B4, the intracellular Ca ion level-increasing activity [specific activity to Metastin (1-54)] (relative to Metastin (1-54)) worked out at 1.1.

Consider B5, for which the intracellular Ca ion level-increasing activity [specific activity to Metastin (1-54)] (relative to Metastin (1-54)) is 0.5.

On to Ac-[dY][Hyp]N[dT]F[azaGly]L[Arg(Me)]W-NH2 [des(1)-Ac-[D-Tyr2,Hyp3,D-Thr5,AzaGly7,Arg(Me)9,Trp10]MS10], for which the intracellular Ca ion level-increasing activity [specific activity to Metastin (1-54)] (relative to Metastin (1-54)) is 0.9.

Molecule B6 gave an intracellular Ca ion level-increasing activity [specific activity to Metastin (1-54)] (relative to Metastin (1-54)) of 0.9.

B7 registered an intracellular Ca ion level-increasing activity [specific activity to Metastin (1-54)] (relative to Metastin (1-54)) of 1.

For B8, the intracellular Ca ion level-increasing activity [specific activity to Metastin (1-54)] (relative to Metastin (1-54)) was 0.5.

{4‑ureidobenzoyl}-F[azaGly]L[Arg(Me)]W-NH2 [des(1-5)-4-Ureidobenzoyl-[AzaGly7,Arg(Me)9,Trp10]MS10]: the intracellular Ca ion level-increasing activity [specific activity to Metastin (1-54)] (relative to Metastin (1-54)) came to 1.3.

Molecule B9 had an intracellular Ca ion level-increasing activity [specific activity to Metastin (1-54)] (relative to Metastin (1-54)) of 0.8.

In turn, B10 registered an intracellular Ca ion level-increasing activity [specific activity to Metastin (1-54)] (relative to Metastin (1-54)) of 0.7.

As for B11, the intracellular Ca ion level-increasing activity [specific activity to Metastin (1-54)] (relative to Metastin (1-54)) came out at 0.5.

Molecule B12 came in with an intracellular Ca ion level-increasing activity [specific activity to Metastin (1-54)] (relative to Metastin (1-54)) of 1.5.

For the molecule B13, the intracellular Ca ion level-increasing activity [specific activity to Metastin (1-54)] (relative to Metastin (1-54)) was 0.6.

Regarding B14, the intracellular Ca ion level-increasing activity [specific activity to Metastin (1-54)] (relative to Metastin (1-54)) amounted to 0.6.

For the molecule B15, the intracellular Ca ion level-increasing activity [specific activity to Metastin (1-54)] (relative to Metastin (1-54)) was determined as 0.7.

Molecule B16 had an intracellular Ca ion level-increasing activity [specific activity to Metastin (1-54)] (relative to Metastin (1-54)) of 1.

As for B17, the intracellular Ca ion level-increasing activity [specific activity to Metastin (1-54)] (relative to Metastin (1-54)) stood at 1.4.

Ac-[dY][Hyp][dN]TF[azaGly]L[Arg(Me)]W-NH2 [des(1)-Ac-[D-Tyr2,Hyp3,D-Asn4,Thr5,AzaGly7,Arg(Me)9,Trp10]MS10]: the intracellular Ca ion level-increasing activity [specific activity to Metastin (1-54)] (relative to Metastin (1-54)) was found to be 0.9.

Values taken from patent publication US20090105152A1.
